This data set concerns the target TcaR (Staphylococcus epidermidis RP62A (ATCC …, UniProt A0A0H2VJZ8 1-151)). Briefly: X-ray crystallography; 1:1 TcaR dimer:ssDNA; 40% ethylene glycol, 0.1 M Tris pH 7.0; 3.6 A; EMSA: 20 mM Tris-HCl pH 8.0, 150 mM KCl, 0.1 mM MgCl2, 0.05 mM EDTA, 12.5% glycerol, 0.1 mM DTT, 1 mg/ml BSA, 15 min, room temperature; ssDNA 12 uM, TcaR 2-24 uM. The following applies: protein: recombinant; tags: N-terminal His6; chain copies: 2; single strand.

The values that follow come from PMC4005659, “TcaR–ssDNA complex crystal structure reveals new DNA binding mechanism of the MarR family proteins”.

Consider CGCAGCGCGCAGCCCTA (ssDNA) [17-mer GC-rich ssDNA], for which the binding result was “binds”.
